Test results as given in paper PMC8068644.

Assay: immunoblot, full-length as % of total β1AR, CHO-Pro5
Conditions: glycan lost

| Substance | other: N-terminal proteolytic cleavage, other: decrease in full-length β1AR (control: 31H32A/52A53A-β1AR) | other: N-terminal proteolytic cleavage, other: decrease in full-length β1AR (control: WT-β1AR) |
| --- | --- | --- |
| β1-adrenergic receptor (β1AR): S41A in 31H32A/52A53A backbone | 69.7% | – |
| β1-adrenergic receptor (β1AR): S37A | – | 21.7% |
| β1-adrenergic receptor (β1AR): S41A | – | 56.8% |
